Among the data in PMC4521836 are binding values, retold here.

Like-named read-outs stand apart in the source and are kept apart here.

This data set addresses T1, IscR (Pseudomonas aeruginosa PAO1) (UniProt Q9HXI7).
T1 sequence: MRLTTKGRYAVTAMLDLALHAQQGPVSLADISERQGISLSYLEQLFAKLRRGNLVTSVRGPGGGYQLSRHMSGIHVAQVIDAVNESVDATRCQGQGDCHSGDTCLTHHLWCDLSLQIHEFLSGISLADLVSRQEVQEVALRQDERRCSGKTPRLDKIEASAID
The data set is described as follows: EMSA. A general note: In EMSA bound probe runs differently from free probe, usually more slowly.

Take “GTCAACCGCAAGCGCTGATCGGCCGCTGGCTATCCCCGTCAGCGGGGATAGCCACAAGCCTTGCGGGTGTTTCTGCCGGGTGCTTTGCGGGACACTAGGGGAGTATCGGTATCCGGAGCGGACCATGACCGCCAGCGAAGAGAAATTCACCCGCCAGACGCTGCTCGACGTGCAGCCTCTGACT (double strand) [fprB promoter fragment (native), 184 bp]”: the binding entry (20 mM Tris-HCl pH 8.0, 50 mM KCl, 4 mM MgCl2, 0.5 mM EDTA, 0.02 mg/ml BSA, 5 mM DTT, 10% glycerol, 200 ng poly(dI-dC), 3 fmol probe in 25 ul, 25 C 20 min, 7% …) was “binds”.

With “GTCAACCGCAAGCGCTGATCGGCCGCTGGCTATCCCCGTCAGCGGGGATATTTACAAGCCTTGCGGGTGTTTCTGCCGGGTGCTTTGCGGGACACTAGGGGAGTATCGGTATCCGGAGCGGACCATGACCGCCAGCGAAGAGAAATTCACCCGCCAGACGCTGCTCGACGTGCAGCCTCTGACT (double strand) [fprB promoter fragment, IscR site GCC to TTT]”, the binding result was “no binding”.
